Data on 23 molecules can be found in patent publication US20210230599, “STEM-LOOP COMPOSITIONS AND METHODS FOR INHIBITING INTERLEUKIN-8” (VITRISA THERAPEUTICS, INC., published 2021).

For series [1], the target named is T1, Interleukin-8 (IL8, CXCL8), C-terminal His-tagged (Homo sapiens, UniProt P10145 SEQ:1-72). In words: competition; competition TR-FRET; L2 mutant. Conditions: tags: C-terminal 6xHis (Sino Biological). The procedure:
(§1) Activity of each of these variants were tested using a time resolved competition TR-FRET assay in which the labeled parent Aptamer 3 was competed with increasing concentrations of unlabeled variants for binding to IL8 (FIG. 14). Briefly, 2-fold dilutions of thermally equilibrated aptamers were made in TR-FRET Buffer (50 mM MOPS, pH 7.4, 125 mM NaCl, 5 mM KCl, 50 μM CHAPS, 0.1 mg/mL BSA, 1 mM CaCl₂, and 1 mM MgCl₂). 5 μL of aptamer or control solution was added to 5 μl mix of 10 nM C-terminal His-tagged-IL8, 60 nM ALEXA FLUOR® 647-labeled Aptamer, and 5 nM anti-His-Eu (Perkin Elmer) in a black wall low volume 384 well plate (Greiner). For control, 5 μl of 1000-fold excess of unlabeled parent aptamer or 5 μl TR-FRET buffer alone was added to the mix of ALEXA FLUOR® 647-labeled aptamer, His-IL8, and anti-His-Eu. The plate was covered with a plate seal and subsequently incubated in the dark for 1 hour at room temperature. The plate was read on a Biotek CYTATION™ 5 plate reader. Samples were excited at 330 nm and fluorescent values were collected at 665 nm. Data analysis was performed by subtracting the background value and plotting as percent inhibition, normalized to baseline in the absence of competitor. The values were fit by [Inhibitor] vs. response—Variable slope (four parameters) using GraphPad Prism Version 7.0 and then normalized to aptamer control to obtain an IC₅₀ relative to parent aptamer. Data is presented as log values of relative IC₅₀.
(§2) Like L1, most of L2 was also found to be 100% conserved in the degenerate selection, except residue U20, which was ˜92% conserved (FIG. 31). To test sequence requirements of L2, variants of Aptamer 32 were made, where each position of L2 was individually replaced with the other 3 bases and tested for binding in the competition TR-FRET assay.
(In general: TR-FRET usually uses a lanthanide donor and a delayed reading to cut background.)

The target of series [2] is T1, Interleukin-8 (IL8, CXCL8), C-terminal …. In words: competition; competition TR-FRET. Conditions: tags: C-terminal His (Sino Biological); stem-loop. The protocol:
To better understand the sequence requirements and to confirm the stem structures of members of the Aptamer 3 family as determined from sequence covariation analysis from both the primary and secondary (degenerate) selections, a series of variants which included mutations and deletions to the predicted stems were synthesized and screened (Table 24). […] Briefly, 2-fold dilutions of thermally equilibrated aptamers were made in TR-FRET Buffer (50 mM MOPS, pH 7.4, 125 mM NaCl, 5 mM KCl, 50 μM CHAPS, 0.1 mg/mL BSA, 1 mM CaCl₂, and 1 mM MgCl₂). 5 μL of aptamer or control solution was added to 5 μl mix of 10 nM C-terminal His-tagged-IL8, 60 nM ALEXA FLUOR® 647-labeled Aptamer, and 5 nM anti-His-Eu (Perkin Elmer) in a black wall low volume 384 well plate (Greiner). For control, 5 μl of 1000-fold excess of unlabeled parent aptamer or 5 μl TR-FRET buffer alone was added to the mix of ALEXA FLUOR® 647-labeled aptamer, His-IL8, and anti-His-Eu. The plate was covered with a plate seal and subsequently incubated in the dark for 1 hour at room temperature. The plate was read on a Biotek CYTATION™ 5 plate reader. Samples were excited at 330 nm and fluorescent values were collected at 665 nm. Data analysis was performed by subtracting the background value and plotting as percent inhibition, normalized to baseline in the absence of competitor. The values were fit by [Inhibitor] vs. response—Variable slope (four parameters) using GraphPad Prism Version 7.0 and then normalized to aptamer control to obtain an IC₅₀ relative to parent aptamer. Data is presented as log values of relative IC₅₀.
as §2

The target is the same in series [3]. In words: competition; competition TR-FRET. The note with it: tags: C-terminal 6xHis (Sino Biological). The protocol: To better understand the sequence requirements and to confirm the stem structures of members of the Aptamer 3 family as determined from sequence covariation analysis from both the primary and secondary (degenerate) selections, a series of variants which included mutations and deletions to the predicted stems were synthesized and screened (Table 24). Activity of each of these variants were tested using a time resolved competition TR-FRET assay in which the labeled parent Aptamer 3 was competed with increasing concentrations of unlabeled variants for binding to IL8 (FIG. 14). Briefly, 2-fold dilutions of thermally equilibrated aptamers were made in TR-FRET Buffer (50 mM MOPS, pH 7.4, 125 mM NaCl, 5 mM KCl, 50 μM CHAPS, 0.1 mg/mL BSA, 1 mM CaCl₂, and 1 mM MgCl₂). 5 μL of aptamer or control solution was added to 5 μl mix of 10 nM C-terminal His-tagged-IL8, 60 nM ALEXA FLUOR® 647-labeled Aptamer, and 5 nM anti-His-Eu (Perkin Elmer) in a black wall low volume 384 well plate (Greiner). For control, 5 μl of 1000-fold excess of unlabeled parent aptamer or 5 μl TR-FRET buffer alone was added to the mix of ALEXA FLUOR® 647-labeled aptamer, His-IL8, and anti-His-Eu. The plate was covered with a plate seal and subsequently incubated in the dark for 1 hour at room temperature. The plate was read on a Biotek CYTATION™ 5 plate reader. Samples were excited at 330 nm and fluorescent values were collected at 665 nm. Data analysis was performed by subtracting the background value and plotting as percent inhibition, normalized to baseline in the absence of competitor. The values were fit by [Inhibitor] vs. response—Variable slope (four parameters) using GraphPad Prism Version 7.0 and then normalized to aptamer control to obtain an IC₅₀ relative to parent aptamer. Data is presented as log values of relative IC₅₀.

Series [4] has the same target. In words: TR-FRET; bead flow 13 nM. Conditions: tags: C-terminal 6xHis (Sino Biological); label: Alexa Fluor 647. The protocol:
Aptamers were synthesized and labeled with ALEXA FLUOR® 647, and binding to IL8 was quantified by Time-Resolved Fluorescence Resonance Energy Transfer (TR-FRET). Briefly, 2-fold dilutions of thermally equilibrated aptamers were made in TR-FRET Buffer (50 mM MOPS, pH 7.4, 125 mM NaCl, 5 mM KCl, 50 μM CHAPS, 0.1 mg/mL BSA, 1 mM CaCl₂ and 1 mM MgCl₂). […] of aptamer or control solution was added to 10 μL of 15 nM C-His-tagged-IL8 (Sino Biological) in a black wall half-area plate (Corning). In the same plate, 10 μl of aptamer solution was added to 10 μl of TR-FRET buffer alone to use for background subtraction. 10 μl of 15 nM anti-His-Eu (Perkin Elmer) was added to each well, the plate was covered with a plate seal and subsequently incubated in the dark for 1 hour at room temperature. The plate was read on a Biotek CYTATION™ 5 plate reader. Samples were excited at 330 nm and fluorescent values were collected at 665 nm. […] Apparent Kd values obtained for the fits are calculated as the concentration of half-maximal binding and shown in Table 10, and fit curves as FIG. 6. […] It is also possible that differences may arise due to TR-FRET being a homogenous solution binding assay, while bead binding has immobilized ligand and is non-homogenous, so bound aptamers may dissociate during analysis resulting in higher calculated Kd values.

For series [5] the target is unchanged. In words: TR-FRET, 500 pM IL8, protein-limited; estimated about 20 pM. Conditions: tags: C-terminal 6xHis (Sino Biological); label: Alexa Fluor 647; stem-loop. The protocol: Under these assay conditions, the ability to measure the affinity accurately is limited by the input IL8 protein concentration, and the apparent Kd under these protein-limiting conditions was determined to be 8 nM.

For series [6] the target is unchanged. In words: competition; competition TR-FRET. Conditions: tags: C-terminal 6xHis (Sino Biological). The procedure:
as §1
Variants of Aptamers 94, 99, and 100 were synthesized with an optimized stem S1 and G18 was also replaced with a Sp3 spacer to see if further improvements could be made to these molecules (Table 30 and FIG. 20).
The source holds these as a separate data set.

B1: Aptamer 171 (ssRNA)
RNA: CGGUGGGAAAUGUGCGAUGGGUUGCCG
modifications: 2'-F G, 2'-OMe A/C/U, 5' C6NH2, 3' idT
In turn, B1 returned a binding signal in series [1] of more than 10 fold worse than Aptamer 8.

B2: Aptamer 168 (ssRNA)
RNA: CGGUGGGAAAUGUCAGAUGGGUUGCCG
modifications: 2'-F G, 2'-OMe A/C/U, 5' C6NH2, 3' idT
Molecule B2 gave a binding signal in series [1] of more than 10 fold worse than Aptamer 8.

B3: Aptamer 170 (ssRNA)
RNA: CGGUGGGAAAUGUUAGAUGGGUUGCCG
modifications: 2'-F G; 2'-OMe A,C,U; 5' C6NH2; 3' idT
The molecule B3 displayed a binding signal in series [2] of more than 10 fold worse than Aptamer 8.

B4: Aptamer 180 (ssRNA)
RNA: CGGUGGGAAAUGUGAGAGGGGUUGCCG
modifications: 2'-F G, 2'-OMe A/C/U, 5' C6NH2, 3' idT
Regarding B4, the binding signal in series [1] was more than 10 fold worse than Aptamer 8.

B5: Aptamer 172 (ssRNA)
RNA: CGGUGGGAAAUGUGGGAUGGGUUGCCG
modifications: 2'-F G, 2'-OMe A/C/U, 5' C6NH2, 3' idT
As for B5, the binding signal in series [1] is more than 10 fold worse than Aptamer 8.

B6: Aptamer 178 (ssRNA)
RNA: CGGUGGGAAAUGUGAGGUGGGUUGCCG
modifications: 2'-F G, 2'-OMe A/C/U, 5' C6NH2, 3' idT
In the case of B6, in series [1], the binding signal is more than 10 fold worse than Aptamer 8.

B7: Aptamer 186 (ssRNA)
RNA: UGAUGACGAUAGAUUACGGGUAGAGUGAUCGCAUCU
modifications: 2'-F G, 2'-OMe A/C/U, 5' C6NH2, 3' idT
Turning to B7, the binding result in series [3] is recorded as “binds”.

B8: Aptamer 187 (ssRNA)
RNA: UCUUGACGGUAGAUUACGGGUAGAGUGACCGCAUCU
modifications: 2'-F G, 2'-OMe A/C/U, 5' C6NH2, 3' idT
For B8, in series [3], the binding result was “binds”.

B9: Aptamer 169 (ssRNA)
RNA: CGGUGGGAAAUGUAAGAUGGGUUGCCG
modifications: 2'-F G; 2'-OMe A,C,U; 5' C6NH2; 3' idT
Take B9: the binding signal in series [2] is more than 10 fold worse than Aptamer 8.

B10: Aptamer 43 (ssRNA)
RNA: GCGACGGCAGAUUACGGGUAGAGUGGCCGCGC
modifications: 2'-F G, 2'-OMe A/C/U, 5' C6NH2, 3' idT
In turn, B10 registered a binding signal in series [3] of more than 10 fold worse than Aptamer 3.

B11: Aptamer 23 (ssRNA)
RNA: UUAGCCCUGCCAUUGGGGCAUACUUUGGCCGCACU
modifications: 2'-F G, 2'-OMe A/C/U, 5' C6NH2, 3' idT
Regarding B11, binding in series [4] was put at a Kd of 12 nM.

B12: Aptamer 147 (ssRNA)
RNA: GGCGACGGUAGAUUAUGGGCAGUGUGACCGCGCC
modifications: 2'-F G, 2'-OMe A/C/U, 5' C6NH2, 3' idT
For the molecule B12, in series [5], the Kd (usually the constant that tells how readily two partners part at equilibrium) was 0.11 nM.

B13: Aptamer 146 (ssRNA)
RNA: GAUGACGGUAGAUUAUGGGCAGUGUGACCGCAUC
modifications: 2'-F G, 2'-OMe A/C/U, 5' C6NH2, 3' idT
For the molecule B13, the binding result in series [6] was “binds”.

B14: Aptamer 151 (ssRNA)
RNA: GGCGACGGUAGAUUAUGGGAAGUGUGACCGCGCC
modifications: 2'-F G, 2'-OMe A/C/U, 5' C6NH2, 3' idT
As to B14, in series [6], the binding result was “binds”.

B15: Aptamer 269 (ssRNA)
RNA: GGCGACGGUAGAUUAUGGGCAGUGUGACCGCGCC
modifications: 2'-OMe A/C/U, 2'-OMe G in stems S1, S2 and loop L2, 2'-F at other G, 5' C6NH2, 3' idT
As to B15, the Kd in series [5] was 0.126 nM.

B16: Aptamer 142 (ssRNA)
RNA: GAUGACGGUAGAUUUCGGGUAGUGUGACCGCAUC
modifications: 2'-F G, 2'-OMe A/C/U, 5' C6NH2, 3' idT
As to B16, the binding result in series [6] is on record as “binds”.

B17: Aptamer 150 (ssRNA)
RNA: GAUGACGGUAGAUUAUGGGAAGUGUGACCGCAUC
modifications: 2'-F G, 2'-OMe A/C/U, 5' C6NH2, 3' idT
For the molecule B17, the binding result in series [6] was “binds”.

B18: Aptamer 176 (ssRNA)
RNA: CGGUGGGAAAUGUGAUAUGGGUUGCCG
modifications: 2'-F G; 2'-OMe A,C,U; 5' C6NH2; 3' idT
Molecule B18 gave a binding signal in series [2] of more than 10 fold worse than Aptamer 8.

B19: Aptamer 152 (ssRNA)
RNA: GCGACGGUAGAUUAUGGGAAGUGUGACCGCGC
modifications: 2'-F G, 2'-OMe A/C/U, 5' C6NH2, 3' idT
B19: the binding result in series [6] was “binds”.

B20: Aptamer 179 (ssRNA)
RNA: CGGUGGGAAAUGUGAGUUGGGUUGCCG
modifications: 2'-F G; 2'-OMe A,C,U; 5' C6NH2; 3' idT
In the case of B20, the binding signal in series [2] is more than 10 fold worse than Aptamer 8.

B21: Aptamer 174 (ssRNA)
RNA: CGGUGGGAAAUGUGACAUGGGUUGCCG
modifications: 2'-F G, 2'-OMe A/C/U, 5' C6NH2, 3' idT
In series [1], B21 displayed a binding signal of more than 10 fold worse than Aptamer 8.

B22: Aptamer 173 (ssRNA)
RNA: CGGUGGGAAAUGUGUGAUGGGUUGCCG
modifications: 2'-F G; 2'-OMe A,C,U; 5' C6NH2; 3' idT
For B22, in series [2], the binding signal is more than 10 fold worse than Aptamer 8.

B23: Aptamer 175 (ssRNA)
RNA: CGGUGGGAAAUGUGAAAUGGGUUGCCG
modifications: 2'-F G; 2'-OMe A,C,U; 5' C6NH2; 3' idT
As for B23, the binding signal in series [2] was more than 10 fold worse than Aptamer 8.
